These results are taken from US20190135895A1 (published 2019).

The target of assay [1] is truncated monomeric His-tagged human FcRn (human) (UniProt P55899). Kind of assay: SPR (BIAcore 3000), hFcRn injected over immobilized HSA-GST variant, pH 6.0, 1:1 Langmuir model. In general terms: In SPR one partner is held on a chip, and binding of the other changes the refractive index at the surface.
Assay [2] concerns the target T1, WT HSA-GST (human, UniProt P08515 1-218 = GST).
T1 construct: Secreted from HEK293E cells; also called WT-GST; WT HSA fusion
Kind of assay: ELISA, mFcRn captured on rabbit IgG, pH 6.0. In general terms: An ELISA detects its analyte on a solid surface through an enzyme-linked reagent.

truncated monomeric His-tagged human FcRn (human), sequence (P55899 24-297 limits assumed, chain 1 of 2): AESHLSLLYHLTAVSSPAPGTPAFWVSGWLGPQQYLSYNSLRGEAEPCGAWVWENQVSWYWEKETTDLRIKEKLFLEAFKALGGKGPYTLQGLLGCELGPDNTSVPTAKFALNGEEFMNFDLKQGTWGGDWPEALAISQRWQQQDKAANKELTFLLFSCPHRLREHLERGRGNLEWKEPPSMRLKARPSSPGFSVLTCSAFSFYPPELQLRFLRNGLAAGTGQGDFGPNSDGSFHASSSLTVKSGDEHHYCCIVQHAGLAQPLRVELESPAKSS
truncated monomeric His-tagged human FcRn (human), sequence (chain, as listed by the source limits assumed, chain 2 of 2): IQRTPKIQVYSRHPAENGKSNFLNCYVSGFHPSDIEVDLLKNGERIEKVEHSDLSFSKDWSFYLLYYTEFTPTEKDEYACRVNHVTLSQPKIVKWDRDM

As usually defined, the Kd is the constant that tells how readily two partners part at equilibrium. Higher therefore signals a looser complex. Molecule “HSA E505Q-GST (from UniProt P08515 1-218)” returned a Kd in assay [1] of 23.1 nM.

B1: truncated monomeric His-tagged mouse FcRn (receptor)
chain 1: SETRPPLMYHLTAVSNPSTGLPSFWATGWLGPQQYLTYNSLRQEADPCGAWMWENQVSWYWEKETTDLKSKEQLFLEALKTLEKILNGTYTLQGLLGCELASDNSSVPTAVFALNGEEFMKFNPRIGNWTGEWPETEIVANLWMKQPDAARKESEFLLNSCPERLLGHLERGRRNLEWKEPPSMRLKARPGNSGSSVLTCAAFSFYPPELKFRFLRNGLASGSGNCSTGPNGDGSFHAWSLLEVKRGDEHHYQCQVEHEGLAQPLTVDLDSSARSS
chain 2: IQKTPQIQVYSRHPPENGKPNILNCYVTQFHPPHIEIQMLKNGKKIPKVEMSDMSFSKDWSFYILAHTEFTPTETDTYACRVKHASMAEPKTVYWDRDM
notes: extracellular domain; Made in a Baculovirus system; also called mFcRn; soluble mFcRn; not shown: His tag
Regarding B1, the binding result in assay [2] was “no binding”.
